In the Immune Epitope Database (IEDB):

Key:
HLA-B*57:01 [1] = test: IEDB peptide-MHC binding, purified MHC/direct/fluorescence; filed as Kd, often an IC50 or EC50 that approximates it; ≥ and ≤ were set here for values at or beyond the usual limits of such assays; details: source organism: Mycobacterium tuberculosis
HLA-B*51:01 = test: as above; details: source organism: Mycobacterium tuberculosis
HLA-A*26:01 = test: as above
HLA-B*27:05 [2] = test: as above
HLA-A*01:01 = test: as above
HLA-A*11:01 = test: as above
HLA-B*15:09 = test: as above; details: source organism: Mycobacterium tuberculosis str. Haarlem
HLA-A*31:01 = test: as above
HLA-B*58:01 = test: as above
HLA-A*02:01 [3] = test: as above
HLA-B*46:01 = test: as above; details: source organism: Mycobacterium tuberculosis
HLA-B*40:01 = test: as above
HLA-A*69:01 = test: as above
HLA-B*48:01 [4] = test: as above; details: source organism: Mycobacterium tuberculosis
HLA-B*15:17 [5] = test: as above; details: source organism: Mycobacterium tuberculosis
HLA-A*03:01 = test: as above
HLA-B*15:01 [6] = test: IEDB peptide-MHC binding, purified MHC/competitive/fluorescence; filed as Kd, often an IC50 or EC50 that approximates it; ≥ and ≤ were set here for values at or beyond the usual limits of such assays; details: source organism: Mycobacterium tuberculosis C
HLA-B*15:42 = test: as above; details: source organism: Mycobacterium tuberculosis C
HLA-B*45:06 = test: as above; details: source organism: Mycobacterium tuberculosis C
HLA-B*83:01 = test: as above; details: source organism: Mycobacterium tuberculosis C
HLA-A*32:15 = test: as above; details: source organism: Mycobacterium tuberculosis C
HLA-B*15:01 [7] = test: IEDB peptide-MHC binding, purified MHC/direct/fluorescence; filed as Kd, often an IC50 or EC50 that approximates it; ≥ and ≤ were set here for values at or beyond the usual limits of such assays
HLA-A*24:03 = test: as above; details: source organism: Camelpox virus M-96
HLA-B*08:02 = test: as above; details: source organism: Variola virus
HLA-A*26:03 = test: as above; details: source organism: Variola virus
HLA-B*57:01 [8] = test: IEDB peptide-MHC binding, purified MHC/competitive/fluorescence; filed as Kd, often an IC50 or EC50 that approximates it; ≥ and ≤ were set here for values at or beyond the usual limits of such assays; details: source organism: Variola virus
HLA-A*68:02 = test: as above; details: source organism: Variola virus
HLA-B*18:01 = test: as above; details: source organism: Variola virus
HLA-B*07:02 [9] = test: as above; details: source organism: Variola virus
HLA-A*02:01 [10] = test: as above; details: source organism: Variola virus
HLA-B*08:01 [11] = test: as above; details: source organism: Variola virus
HLA-A*26:02 = test: as above; details: source organism: Variola virus
HLA-B*15:17 [12] = test: as above; details: source organism: Variola virus
HLA-C*06:02 = test: IEDB peptide-MHC binding, purified MHC/direct/fluorescence; filed as Kd, often an IC50 or EC50 that approximates it; ≥ and ≤ were set here for values at or beyond the usual limits of such assays
HLA-B*73:01 = test: IEDB peptide-MHC binding, purified MHC/competitive/fluorescence; filed as Kd, often an IC50 or EC50 that approximates it; ≥ and ≤ were set here for values at or beyond the usual limits of such assays
HLA-C*07:02 = test: IEDB peptide-MHC binding, purified MHC/direct/fluorescence; filed as Kd, often an IC50 or EC50 that approximates it; ≥ and ≤ were set here for values at or beyond the usual limits of such assays
HLA-C*04:01 = test: as above; details: source organism: Homo sapiens
HLA-B*27:05 [13] = test: IEDB peptide-MHC binding, purified MHC/competitive/fluorescence; filed as Kd, often an IC50 or EC50 that approximates it; ≥ and ≤ were set here for values at or beyond the usual limits of such assays; details: source organism: Encephalitozoon cuniculi GB-M1
HLA-B*48:01 [14] = test: as above; details: source organism: Encephalitozoon cuniculi GB-M1
HLA-B*44:02 = test: IEDB peptide-MHC binding, purified MHC/direct/fluorescence; filed as Kd, often an IC50 or EC50 that approximates it; ≥ and ≤ were set here for values at or beyond the usual limits of such assays; details: source organism: Vibrio cholerae
HLA-B*07:02 [15] = test: as above; details: source organism: Vibrio cholerae
HLA-B*08:01 [16] = test: as above; details: source organism: Vibrio cholerae
HLA-A*30:01 = test: as above; details: source organism: Vibrio cholerae
[17] = source organism: Mycobacterium tuberculosis
[18] = source organism: Camelpox virus M-96
[19] = source organism: Vibrio vulnificus CMCP6
[20] = source organism: Encephalitozoon cuniculi GB-M1
[21] = source organism: Vibrio cholerae

LPAEVRAAF
Kd (HLA-B*57:01 [1]): ≥ 20 µM
Kd (HLA-B*51:01): ≥ 20 µM
Kd (HLA-A*26:01; source organism: Mycobacterium tuberculosis str. Haarlem): 0.889 µM
Kd (HLA-B*27:05 [2]; [17]): ≥ 20 µM
Kd (HLA-A*01:01; [17]): 4.61 µM
Kd (HLA-A*11:01; [17]): ≥ 20 µM
Kd (HLA-B*15:09): ≥ 20 µM
Kd (HLA-A*31:01; [17]): ≥ 20 µM
Kd (HLA-B*58:01; [17]): ≥ 20 µM
Kd (HLA-A*02:01 [3]; [17]): ≥ 20 µM
Kd (HLA-B*46:01): ≥ 20 µM
Kd (HLA-B*40:01; [17]): ≥ 20 µM
Kd (HLA-A*69:01; [17]): 1.31 µM
Kd (HLA-B*48:01 [4]): ≥ 20 µM
Kd (HLA-B*15:17 [5]): ≥ 20 µM
Kd (HLA-A*03:01; [17]): ≥ 20 µM
Kd (HLA-B*15:01 [6]): ≥ 20 µM
Kd (HLA-B*15:42): ≥ 5 µM
Kd (HLA-B*45:06): ≥ 5 µM
Kd (HLA-B*83:01): 0.0676 µM
Kd (HLA-A*32:15): 0.757 µM

EYKKFIATF
Kd (HLA-B*15:01 [7]; [18]): ≥ 20 µM
Kd (HLA-A*26:01; source organism: Variola virus): ≥ 20 µM
Kd (HLA-A*24:03): 0.032 µM
Kd (HLA-A*01:01; [18]): ≥ 20 µM
Kd (HLA-B*08:02): ≥ 20 µM
Kd (HLA-A*11:01; [18]): ≥ 20 µM
Kd (HLA-A*26:03): ≥ 20 µM
Kd (HLA-A*31:01; [18]): ≥ 20 µM
Kd (HLA-B*58:01; source organism: Variola virus): 0.256 µM
Kd (HLA-A*69:01; [18]): ≥ 20 µM
Kd (HLA-B*57:01 [8]): 4.85 µM
Kd (HLA-A*68:02): ≥ 20 µM
Kd (HLA-B*18:01): 0.0583 µM
Kd (HLA-B*07:02 [9]): 3 µM
Kd (HLA-A*02:01 [10]): ≥ 20 µM
Kd (HLA-B*08:01 [11]): ≥ 20 µM
Kd (HLA-A*26:02): 0.818 µM
Kd (HLA-B*15:17 [12]): 0.865 µM

RKKLRPRWL
Kd (HLA-C*06:02; source organism: dengue virus type 1): ≥ 20 µM

SDFFDRLQV
Kd (HLA-B*73:01; source organism: Cryptosporidium parvum Iowa II): ≥ 20 µM

YYNAFHWAI
Kd (HLA-C*07:02; source organism: Homo sapiens): 0.715 µM

WYDALCVLL
Kd (HLA-C*04:01): 0.035 µM

FMIVNNFPV
Kd (HLA-C*06:02; [19]): 0.633 µM
Kd (HLA-C*07:02; [19]): 1.01 µM

YRFNLRRKM
Kd (HLA-C*06:02; [20]): 0.01 µM
Kd (HLA-B*27:05 [13]): 0.0012 µM
Kd (HLA-B*73:01; [20]): 0.0851 µM
Kd (HLA-B*48:01 [14]): ≥ 20 µM

GKFFAQAFL
Kd (HLA-B*15:01 [7]; [21]): ≥ 20 µM
Kd (HLA-A*26:01; [21]): ≥ 20 µM
Kd (HLA-B*27:05 [2]; [21]): 1.29 µM
Kd (HLA-B*44:02): ≥ 20 µM
Kd (HLA-A*01:01; [21]): ≥ 20 µM
Kd (HLA-B*07:02 [15]): ≥ 20 µM
Kd (HLA-A*11:01; [21]): ≥ 20 µM
Kd (HLA-A*31:01; [21]): ≥ 20 µM
Kd (HLA-B*58:01; [21]): ≥ 20 µM
Kd (HLA-A*02:01 [3]; [21]): ≥ 20 µM
Kd (HLA-B*08:01 [16]): ≥ 20 µM
Kd (HLA-A*30:01): 0.753 µM
Kd (HLA-B*40:01; [21]): ≥ 20 µM
Kd (HLA-A*69:01; [21]): ≥ 20 µM
Kd (HLA-A*03:01; [21]): ≥ 20 µM
Kd (HLA-B*73:01; [21]): ≥ 20 µM

YFYYNAFHW
Kd (HLA-C*07:02; source organism: Homo sapiens): 2.06 µM
Kd (HLA-C*04:01): ≥ 20 µM
